According to the DeepSol protein solubility set:

Test: soluble on expression in E. coli; label from the status in PepcDB or PDB records

Sequence | soluble on expression in E. coli
MGHHHHHHSHMGKKIKKEVEPPPKDVFDPLMIESKKAATVVLMLNSPEEEILAKACEAIYKFALKGEENKTTLLELGAVEPLTKLLTHEDKIVRRNATMIFGILASNNDVKKLLRELDVMNSVIAQLAPEEEVVIHEFASLCLANMSAEYTSKVQIFEHGGLEPLIRLLSSPDPDVKKNSMECIYNLVQDFQCRAKLQELNAIPPILDLLKSEYPVIQLLALKTLGVIANDKESRTMLRDNQGLDHLIKILETKELNDLHIEALAVIANCLEDMDTMVQIQQTGGLKKLLSFAENSTIPDIQKNAAKAITKAAYDPENRKLFHEQEVEKCLVALLGSENDGTKIAASQAISAMCENSGSKDFFNNQGIPQLIQLLKSDNEEVREAAALALANLTTCNPANANAAAEADGIDPLINLLSSKRDGAIANAATVLTNMAMQEPLRLNIQNHDIMHAIISPLRSANTVVQSKAALAVTATACDVEARTELRNSGGLEPLVELLRSKNDEVRKHASWAVMVCAGDELTANELCRLGALDILEEVNVSGTRKNKFSEAAYNKLLNNNLSLKYSQTGYLSSSNIINDGFYDYGRINPGTKLLPLKEL | not soluble
MPKLVTWMNNQRVGELTKLANGAHTFKYAPEWLASRYARPLSLSLPLQRGNITSDAVFNFFDNLLPDSPIVRDRIVKRYHAKSRQPFDLLSEIGRDSVGAVTLIPEDETVTHPIMAWEKLTEARLEEVLTAYKADIPLGMIREENDFRISVAGAQEKTALLRIGNDWCIPKGITPTTHIIKLPIGEIRQPNATLDLSQSVDNEYYCLLLAKELGLNVPDAEIIKAGNVRALAVERFDRRWNAERTVLLRLPQEDMCQTFGLPSSVKYESDGGPGIARIMAFLMGSSEALKDRYDFMKFQVFQWLIGATDGHAKNFSVFIQAGGSYRLTPFYDIISAFPVLGGTGIHISDLKLAMGLNASKGKKTAIDKIYPRHFLATAKVLRFPEVQMHEILSDFARMIPAALDNVKTSLPTDFPENVVTAVESNVLRLHGRLSREYGSKLEHHHHHH | soluble
MILLPLHCGHVPCFPPLELPVTHVAVIGAGFSGLAAALRLAQAGAQVTVLDALDRPGGKAALGYDDFSSGPTVVTMPQIFAALHARLGWDAPALTPAHPTTTYHALSGRTFAPEALNVVGSLDPTMTQLSRAEGRRYRQLLFAARQMYSGAADTFLFAPPPTRTQLAQYALRAGRQAAPLTPLARYVRSGPFLTPFWLRFATYLGADPYRAPAVLHNIAWVELGDGIWHLPGGLLALAERLYAEALDRGVRFEFGIQVQHLSTHGGRVLGAHTSRGAFAADRWVSAADRALTLGWLGQDTPTTPRGVSGFALQLRLGEDLGQGHHIFWPADYAREWQDIRAGRLPSEPTLYLHLDGPRAFLLVNAPPDPRLGLSPERKADYARHLLQRLQSRFPLPVVEWQALAPADYARTGLGGALYGRAPHGLLGSLRPGWRLPQARNLVQVGGTVHPGGGVPLSLLSGWNGAGSLLGLDYDSLDGEKAFGKPAPAIKLEHHHHHH | not soluble
MRKIRLVYRRFPNRVIMREDEVIEDFGDVIVAKSEFTGMLAPLRVNGVEVINNGYKMVYFAFIGRDFDVLKIYDPSGNFKGLYVDVLDYTRREGNTVEILDLFLDIFIFPEGEYYLLDEDELEMAFNYGIISREKLLKAYDTAERIIGQIKRGKFPPKIVWEYSL | not soluble
MGLYLKGPSYKQVARILGMSHYRMKMLAMKKREVDDTVTKINGERRYLWAAIDVESREILAILEHHHHHH | not soluble
MTARPDTAIVLAAGLGKRMRPITDTIPKPLVRIAGKTLLDWGLDSLAAAGVAKAVVNVHYLPEQIVAHVAARSAPRIVISDESDRLLDSAGGIVKALPELGEQPFYILNADTFWIDHGPLNLGRLALAWDAAKMDILLMLADLHQATGHCGSTDFLVAPDGALRRSKGDPAGLIYAGAAIIHPRLFKDASAEPHSLNAYFDKAIAAGRLFGMPMHGHWITVGTPDAIPLAEEAVAGALAEMQLEHHHHHH | not soluble
MGSDKIHHHHHHMLFLQNTPLPEIIDGLPNISGWEAEVLSVVNNDAPVFLPTTNIKLEDVNAVFAIALHMHQPTIPAGDGGELISNLQYMFAHPHEGDNHNAGPFAYCYSRMGEFIPELVSQGCNPRVMLDYSGNLLWGLRQMGRNDVLDSLKGVTGDRTYQPHVEWLGTMWGHAVVPSTPIKDIKLHILAWQQHFAAIFGWEALARVKGFSPPEMHLPNHPDTLFQFVKALKECGYRWLLVQEHTVETIDGQSLTNRHLPHRLLARNSQGETISIIALIKTQGSDTKLVAQMQPYYEAKTLSKRRLGNVEIPPIVSQIGDGENGGVMMNEFPSAFKQAWWDMVNHGGGKSGVVGVCGTEYLELIEAAGVKPEDFPSCQPVGQHQIWQRVAPDNNQPEAVENAIQEIKQINPNFHLEGASWTNHISWVRGYENVLSPMYELSSLFHQKFDNLLLNNSYSSITKQPDYRQALLYNLLLQTSCFRYWGQGAWTDYAREIYQRGKSLLTS | not soluble
HMVHITLDPDTANPWLILSEDRRQVRLGDTQQSIPGNEERFDSYPMVLGAQHFHSGKHYWEVDVTGKEAWDLGVCRDSVRRKGHFLLSSKSGFWTIWLWNKQKYEAGTYPQTPLHLQVPPCQVGIFLDYEAGMVSFYNITDHGSLIYSFSECAFTGPLRPFFSPGFNDGGKNTAPLTLCPL | soluble
MGSDKIHHHHHHMPLSPQQDILEIDQDASVLRFAPQAGGRLMSWTIDGEAVIHWPEHADWSQPARIRGGNPLLFPFLGRHRVDGKIGYWRDAKGTVRELPMHGFARDLPFEAHADVHGAGLRMILTDSTATRHGYPFGFRLETAYCLADARTLDVTFTTTNTGDSRLPSRLPYYAGHHFYFTLPHTQRAATSLELPRTERRHQQDDGSISAAEPGEARYTLDEARIQDRFHCLAGAPDRPVRLVAPGLDRIVTIDLQRPDSIPWYAVTTWTEAAESDFYCVEPWLGLPDAIHNGMGLRWLEPGQTEVAALRISVDKLG | not soluble
MSLKDKILTIDVGTGSTRAAIVRIDGAMIGFAQREYEQTTPRAGWSEQAPSLWWQAACDCIREVLYRYPETAAQIAVIGACGQMHGTVLLDDRGELVEDRALLWNDKRSQPQVDAFNAREGWEKWLAHLNNPPAAAWPAFKLAWWRENHPDRWSQLAKVLMPKDYINFMLTGAMATDYSEASCYFLMDSETRSWSSQACETFGLRVDQLPELKLSSDIIGQVTQPAADLTGLPAGIPVVAGTSDMAASLLGSGVYEPGMASDSTGTSTLMTVVSPRPLHHPLVNNLHLANAAWGGFTILDAGGDAVRWARLALADNQITHPQLLQEAAAVPAGAEGLLFLPYLTGERLAEHTNSRAQFFGLQRKHRRGHLFRAVLEGVAFASWRNLRQLQKCGQYPQQMIASGGGARSSLWLEIKASAYNLPILSTRNQENGVTGCGIIAGVGVGLYADFASGVRQTVQFEKLISPDPLLRDYYHACCELFDTLYRQSAALYDRLDALSEGHHHHHH | soluble
VWRTREAVVACIDADPHAEHVLRSAHRLAQQLDCEWHAITIEAPRVAPLPRAGRARLDQALALAETLGAHVETVAGTDMVDAATRYMRRHNITKAVVGRDAWRRRGLSGLL | not soluble
NEHSKWMILDRVRFTLDGLECDKIGVGYEAYRNQPNFCSAPYGSCLGNQLWNFWEYDKRRIDNSQLPLYIVEGRFQRINQHPNAGAHTFSVGVTEDLNTNLLIELMADDIEYVYQRSPAKIIDIRVPTFEALSQVGIANVTTKNIGKLESSYSLTFKCSSGISPVEEQLYTMKPDEVIARSFELRSTTDQAAMHQCEAILKASDFSELDREGYRFSTAATVYNNGAQIGPTNDHKKGGFWDSIKALWRNLIDFLTGRLCWTKCPRLFDFGCHI | not soluble
MGSDKIHHHHHHMYKLNQNETPLFNALMEYVNRDTIPFHVPGHKKGNGIDKEFKNFIGENPFKIDVTVFKLVDSLHHPTGPIKKAQELAADAYGSKAAFYSVNGTSGAIQGMILSVVGDGDKIIVPRNVHKSVTAGIILSGAVPVYMHPEVDRRVGIAHGVSPETVGETLKNNPDAKAVLLINPTYYGVSTDIKKIADIVHSYDIPLIVDEAHGPHLSFNDRLPVSALKAGADMCAQSTHKIIGALTQMSLLHVNSDRIDMNRVQQIMNLLQTTSPSYILMASMDCARRQIALHGKELLDGTIDLCNYARREINKIPGFYCFGEEVLGKPGSYAFDPTKLTITCTDLGITGYDLDMLLANDYHIQVELSDLYNVLAVGSFGDTKENIDALINALRQISKSISSTVKNKKNSFIDIPDVPERILSPRDAFNGAKESMLIKDSVGKTSGEFLMAYPPGIPVLCPGEIITQEIIDYVSDLKAAGLYVQGTEDPDVNYIKVLK | not soluble
MTAKPTVFVVDDDMSVREGLRNLLRSAGFEVETFDCASTFLEHRRPEQHGCLVLDMRMPGMSGIELQEQLTAISDGIPIVFITAHGDIPMTVRAMKAGAIEFLPKPFEEQALLDAIEQGLQLNAERRQARETQDQLEQLFSSLTGREQQVLQLTIRGLMNKQIAGELGIAEVTVKVHRHNIMQKLNVRSLANLVHLVEKYESFERGVS | soluble
MSLTKNNISFYVVDASEELTMNIKEASEKSGVSADTIRYYERIGLIPPIHRNESGVRKFGAEDLRWILFTRQMRRAGLSIEALIDYLALFREGEHTLEARAELLKKQRIELKNRIDVMQEALDRLDFKIDNYDTHLIPAQEELKDFNVERSNEGHHHHHH | soluble
MGSDKIHHHHHHMSKILMVGSGPVAIQLARLCNLHGEHMVDMVSRVHASTKSKRVFDAYHRDGFFSVMTQNDAHQCFSGKFTVRHFFKDVKDITQYYDVVILACTADAYRPILQQLSKSTLKRIKQIILVSPTLGSHMLVKQILSDVHCEGEVISFSTYLGDTRIFDKAQPHCVLTTRVKSKLFVGSTHSQSITLYKLKSLFDYLNIELTTMDTPLHAEIHNSSLYVHPPLFMNQFSLKAVFEGTKVPVYVYKLFPEGPITMTLIHEMRLMWQEMMMILKKLKVPSVNLLKFMVKENYPIRDETMREVDIESFENLSAIHQEYLLYVRYTAILIDPFSNPDDQGAYFDFSAVPYKHVDTDEQGVIHIPRMPSEDYYRTLMIQAIGRALNVATPMIDTMLLRYETTVKQYCDTHLHQQLSKQFELHHFKQDLALVTNYLTFYR | not soluble
MSLKRKIETFLAKWKKSEDRKPLVIKGIRQCGKTYIVQKFAKENYESVVYMNFILEPDKKSAFTGNIDVDTIILNLSALIQGSRFINGKTCIILDEIQECKEARTALKSFHIDGRFDVIATGSLLGVKGYDKSKKKKEEEEGQDSVPVGYETVIDMYPLDFEEFLWANGISDMVIDSVKSCFENESTVPDGIHKAMMELLYRYVIVGGLPEVVNCFLETKNIELIYKVQRNLIAEYEEDMVKYADDPDKPRIRECFESIPKQLAKENKKFQYSVVKKGGRASQYIGSIQWLEDAGIVRRCYNTQITELPLEGNSIKGSFKVYTTDIGILMAMLDYGTQADILKGNLLGYKGAIFENLMADFLCKSGQKLYYFHKDSGLELDFLVRFKGECVILEVKAKTGKAKSMTTVLKNKDVYYVNNAIKLGQYNVGCEGDILTIPLYMGFLVEDKLADVIIPDVDVSLLTTIEGHHHHHH | soluble
AYGKKSQTEVISFEEVVHPAEKIREALQVGKNEAIYELIRRRMLDGEPMTVEKIYLPQAYVQGHTKQDFEGSLFCLIEKNVEIAYSHQEIEAILVEAEISELLNVPVGQPLLQVHSITYALDATPILYDVSLYRADRYTFKNTLTRYSPSENNQVELGGSWNE | soluble
MSLRVAIEGCTQGHGTLDAIYASVEESCKQRGWDGVDILIIGGDFQSVRNAEDLSIMSCPVKYRHLGDFPKYYSGERKAPYLTIFIAGNHEASSHLWELYYGGWVAPNIYYMGAANILRFGPLRIAGLSGIWKGFDYRKPHHERLPFSGGDVKSWYHVREIDVRKLLQVQTQVDVGLSHDWPRAVELHGDHEWLFRKKPDFRNESRDGTLGSVAAEYVMDRLRPPHWFSAHMHVKFAAIKTYSEAQPEEGHHHHHH | soluble
